Results: patent US20240026407A1, “MODIFICATION OF SAPONINS” (GLAXOSMITHKLINE BIOLOGICALS SA, priority 2020, published 2024)

B1: 854 (protein, listed as Corynespora cassiicola)
chain: MAQESGTVHDDESLQALVGQMTLEEKIKMLSAKNVWETPEIDRLGIPSLKVTDGPNGARGGSFFDGTTAACFPSCVSLAATFNRSLSRQVGKALEQEAITKGAYVLLGPTVCCHRSPLGGRNFEAFSEDPYLSGALASEYVKGLQEERVAATVKHFLANEQDTRRFSVNEKISERALREIYLRPFEMVAKEADPWCFMSSYPKINGAHVDAQSKFLVDILRKEWGYKGLIMSDWGATSTPESVRYGLDLETPGPPRWRTTDAVTKCLADGHIEESDIDARVLATLRLLKKVGKFDDRKTTPPEQAIDRPEHRALIRKAGGEGIVLLKNNGNLLPIDTRKTKKIALLGPLAKYAAAHGGGSASLNCHYKISPYDAFVARLGGDVEITHSKGAHIFRVYPDLEASCTNARGNSGFLAEYFMSSSTTEKPFWTEEFPRGSVTTLMNTKVIGCKTLKFTTTYQPPVSGSHYLSFSGLGPSQLFINDMLVAEQKEPTKDAMGFLLGVQEEVRIQYPFSSTQSYAISMVTHPSPFSNAELYLMENQCAIHIGFIAQEEIEHDVLSEAVDLASSADLAIVFVGNTIQWETEGQDLETMTLPADGSQDNLISQVVAANPNTIVVNTTGVPVELPWVDSVPALLQAWYAGQECGNAILDVLLGEVSPSGKLPISWPKKYEHTGCYGHFGLDSFESREVEYVEGVYVGYRWFDQWWGQDKEVRFPFGFGLSYTEFDISDARISGAISGDESSQVKVSANIRNIGDRFGAETVQIYVQPPALADLGRPLKDLVGFVKVELKPGETRDITVCFQKDNVSFWNEKANQWRVCRGTYNVLIATSSDPKDAKQALRFEVEEDLDFDP
B2: 817 (protein, listed as Pseudonocardia sp.)
chain: MAHVDEELLGTLIATLDLERKVRLLTGADFWSTPAEPAIGLRRMVLSDGPSGVRGESFDEREPSLSLPSSSALGATWDPAAARRYGSALGAEARRQHADAVLGPTINLHRTPYGGRHFEALSEDPLLTAELAAAYVEGLQAHGVAATPKHYVANDAETERFSVDNRVGDRALRELYLAAFEPVVTRAGAWAVMSAYNAVNGTTMSENPLLAEPLTGEWGFDGLVMSDWGGARSTEASARAEQHLVMPGPVSAWGARLVEAVRDGRVGEDVIDGKVRRLLRLAARVGALDGVPPQVTEPPPAEDGAAVARELAAAGSVLVRNTRADGAAELPWDHAVPGSVAVLGHNAALARTQGGGSATVRPAAVVSPLDGLRAALGADRVRYRLGAQVAEGVQPFDPASITNPVTGGSGLRAVFRDVGGAALRTEDRLSSSLIWMGAEIPEGTDHVEIALRWDAPAGAHRLGAAAVGHVVLVAGGTTVLDADGVLTGDEGPGAAIFEAPSVTAGVTTDGPVDLVLRFRPSGQEAGMPLVAVTVGEETVVDDPDAEIAAAAALAAGTDVAVVVVGTNDRIESEGFDRSTLALPGRQDDLVRAVAAANPRTVVVVNSGAPVLLPWRDEVAAILLGWFGGEQFGEAVADVLLGAAEPGGRLPTTWPGTGRERSVLSGVPSDGVLRYDEGVHAGHRNWLRHGETPAYPFGHGLGYTTWTLDGMSVGRWSADGIDVTVTLTNIGDRPGRQVVQAYLSRDRSDVERPARWLAGWAVVDAAPGTTTVTVPVSRRAFRHRTGTGWATEPGTWTLHLGFSVTDTPLAAEVTTT
B3: 850 (protein, listed as Bifidobacterium scardovii)
chain: MSESTYPSVKDLTLEEKASLTSGGDVWHLQGVESKGIPGYMITDGPHGLRKSLASSAGETDLDASVPATCFPPAAGLSSSWNPELIRKVGEAMGEECIQEKVAVILGPGVNIKRNPLGGRCFEYWSEDPYLAGHEAIGIVEGVQSKGVGTSLKHFAANNQETDRLRISANIGPRALREIYLPAFEHIVKTAQPWTVMCSYNRINGVYSAQNRWLLTDVLRGEWGFEGIVMSDWGADHDRVASLNAGLNLEMPPSYTDDEIVHAARDGRIAPAQLDAMAQGMIDLVNRTRAAMSVDDYRFDVDAHDEVAHQAAVESIVMLKNDGAILPLDADAASGQKIAVIGEFARTPRYQGGGSSHITPTRMTSFLDALDERGIAAEFAPGFTLDLEPADPALEAQAVDAAKRADTVLMFLGLPEAAESEGFDRETLDIPAKQIALLDAVAAANDQVVVVLSNGSAVSVAPWAGRAKGILESWLLGQAGGPALADVIFGRTSPSGKLAQTIPMDINDDPSMVNWPGEEGHVDYGEGVFVGYRYYDTYGKAVGYPFGYGLSYATFEISKAAVARTGANAAVVTATVTNTSGVDGAETVQVYVAPGKADVARPRHELKGFVKVFLKAGESADVAIDLDERAFAYWSERYDDWHIESGEYAVEIGTSSRDIAATVTVALEGDGKTQPLTAWSTYGEWSSDPIGAKVMAAVAAAGEAGELPKLPDNAMMNMFLMAMPINSLPTLMSEGGKSITRFMLDEYARLTK
B4: 840 (protein, listed as Hungatella hathewayi)
chain: MNKKIKEILNSLTLEEKASLCSGVGLWQTRPLEDKGIPEIWMADGSNGVRIMKPVNQERKQDTSDFLKVTDLTQNSPTITNQYEAVCYPSGASLASTWDTELIEEMGEALGDECRYFKVNLLLAPGINIKRSPLGGRGYEYYSEDPYLTGKVAESFIKGVQKTGTGTSIKHFAANNAETLRINMSSDVDERALREIYLAPFEIGVKNAKPWTVMSSYNKVNGVQMAENRELLTDILRDEWGFNGVVVSDWGGVKDRIKALEAGNDLDMPENQRSNQSVVDAVRRGILSEAVLDQSVERILELVFKAKEQERFTDDMDFESHRNLSRKVAEESVVLLKNEKGLLPITKEKYKKVAVIGAFAREPRYQGGGCTLVNPIRISRPYEEMEKLAGKNIELTYAKGYELKDETSDELIHEAEEAAREADIAVIFGGLWVAYDREGFDRKHLEIDSSHIRLIEAVSRVQKRVVVVLSNGDAVVMSPWLDHVGAVVEQFLVGETVGEALARVLFGEVNPSGKLPVTFPKRLEDTSAYPYFPGECSHHVYGEGIFVGYRYFDKKKIEPLFPFGYGISYTTFQYSAIRADRSQMKDTDTVTVSVDVTNTGCVKGKEIVQIYVSDEKSRLKRPEKELKAFGKVELEPGETKTLTFTLGYRDFAYYDPEASDWVVEEGIFHIHAAANAGDIRQSIPVEVTEAKKKFRRLYLDSQHTAVFEHPMAKKMYLDFLVETGVIAADRVEAMAPLLKGNYMGIYNVVTSLLGGNVTKEEMQAVLDRINEVCKDNRPAE
B5: 876 (protein, listed as Pyrenochaeta sp.)
chain: MQLSEMALTGVEVDATDVEYILKQMSLDEKIQMLAAKNVWETPEIERVGIPSLKVTDGPNGARGGSFFDGTTAACFPASVSLAATFSRELSRQIGTALGQEAITKGAYAVLGPTVCCHRSPLGGRNFEAFSEDPYLSGTLASEYVQGLQQERVAATVKHFLANEQDTRRFSINQTISERALREIYLKPFEMVVKEAKPWCFMSSYPKINGKHVDAQSLFLEDILRKEWSYDGLVMSDWGATSTVESVSYGLDLEMPGPPRFRTPEAVHQALLKGTVSESDIDARVLTTLKLLERVGKFADRRDTPKETAVDRPEHRELIRKAGSEGIVLLKNDRGILPIDVTKTKKVALLGPLAKYAAAHGGGSASLNCHYKVSPFDAFKDRLSEDVEIAHSKGAHIFRVYPDLEEGCLNARQRPGFLAEYFMTSRVTEEPFLVEQFPRGSFTTLMNTRATGCKTVRFTTTYSPVTPGAHYLSFSGLGPSKFYINDELVAHQTESTKDAMGFLLGVQEEIRTQFVFEVGKEYNIVVETHPSPTSNAELYLLDNQCSVHLGLISQEEMEQDVLAEAVSLAKDADLAIVFVGNTTQWETEGQDLESMSLPANGSQDDLIVRVAAANPNTIVVNTTGVPVELPWIDSVPAFLQAWYAGQETGNAILDVLLGTTCPSGKLPISWPKKYEHTGCFGNFGLDSFESRQVDYVEGVFVGYRWFDNLWGGEKEVRFPFGFGLSYTTFEITGTSIKGSLSNDAHHVLRVSIKVKNVGKCLGAEIVQVYLKPPVTEGLERPQKTLAGFEKIELRVGEEREVHIAIGKENAAFWDENLSKWRVSTGVYEVLVATSSHPRDCRAVLETVVEDEFIFKA
B6: 819 (protein)
chain: MTTVHPDDYADRASELVAAMTLDEKASLTSGADFWNLKTVERLGLGAVMVTDGPHGLRKATNDAEIGIGQAVPATCFPTAAALGSTWDDELLEQVGAALGEEARAAGVAVVLGPGVNMKRSPLCGRNFEYFSEDPLVAGRAGAAMVRGVQSQGVGTSVKHFAANSQETDRMRIDARIGERALREIYLPAFERIVTQTRPWTVMCAYNKVNGTYASQHPWLLTTVLREDWGFGGLVVSDWGAVDQRVPGLAAGLDLEMPASGGVTDEQIARAVRTGELDEAVLDRAVQRIVALILAAQAVEPGTGFDTDAHHELARKAAAAGAVLLRNEPVDGSPVLPLDARDITGQAPLVVIGEFARTPRYQGAGSSQINPTRLDSALDALREQLGGAVRFEPGYRLAEATGMPGQELTDDELADRAVEAARGATVVLFAGLPAAVESEGYDRDDIELPNAQTTLIERVSAVAARTTVVLSNGSVVSVASWREKVDALLECWLGGQGGGSATADVLLGRSCPGGHLAESIPLALSDVPAQLNFPGSHSRVDHGEGVFVGYRGLDTMGREVAYPFGFGLTYTTFELTGVQATPVVTVADGTGLDETVAVVRGTLTNTGQRTGAQVVQLYLGRHEASRVARAPRELRGYEKITLAPGQSAPFEFALSRRDLSYWDEGTGCWQVEPGAYRAWVGFSSRDAAAVLPLQVTAPEPASPLGKDSTYAEWMAHPVGGPLLRTDARAFVDDMASSGAYELFAAMPLERLVRLPGSLLAPEDYLTLLDRAQAGQD
modifications: Propionibacterium australiense

Experiment: Experiment 5-1: screening of additional glucosidases for deglycosylation with purified QS-18 (0.04 mg/ml) at pH 7.5 and 30 deg C
Assay type: biochemical, Quillaja saponaria
Settings: pH 7.5, 30 degrees C, 18 hours, LCMS/MS
Description: The 94 additional genes, together with positive control (DNA encoding SEQ ID No. 262) and negative control, were transformed, expressed, lysed and reacted in the same manner as described above for Experiment 4-1, except the reaction was incubated at 30 degrees C. for 18 hours.
Samples were analysed by LCMS/MS according to the procedure in Experiment 4-1.

Row | Molecule | Experiment 5-1 % conv [%]
1 | B1 | 3.7
2 | B2 | 3.5
3 | B3 | 95.3
4 | B4 | 3.5
5 | B5 | 3.1
6 | B6 | 3.2

Experiment: Experiment 5-2: screening of additional glucosidases for deglycosylation with QS-18 in crude bark extract (80%) at pH 6 and 35 deg C
Assay type: biochemical, Quillaja saponaria
Settings: CBE 80%, pH 6, 35 deg C, 18 hours; UV HPLC
In short: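 Clarified glucosidase lysate (prepared at pH 6) was incubated with pH 6-adjusted crude bark extract at 35 deg C with shaking for 18 hours. Reactions were quenched with MeCN containing 2% AcOH and hexanophenone, then analysed by UV HPLC.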

Row | Molecule | Experiment 5-2 % conv [%]
7 | B1 | <0.5
8 | B2 | <0.5
9 | B3 | <0.5
10 | B4 | <0.5
11 | B5 | <0.5
12 | B6 | <0.5

Experiment: Experiment 5-3: screening of additional glucosidases for deglycosylation with QS-18 in treated bark extract (80%) at pH 6 and 35 deg C
Assay type: biochemical, Quillaja saponaria
Settings: TBE 80% (QS-21 approx. 4 g/L), pH 6, 35 deg C; UV HPLC
Description: Experiment 5-1 was repeated, replacing CBE with Treated Bark Extract (TBE) at pH 6. TBE was prepared from CBE by PVPP treatment and concentration, to provide TBE with a QS-21 concentration of approximately 4 g/L. TBE was adjusted to pH 6 by dropwise addition of 2M NaOH with stirring.

Row | Molecule | Experiment 5-3 % conv [%]
13 | B1 | <0.5
14 | B2 | <0.5
15 | B3 | <0.5
16 | B4 | <0.5
17 | B5 | <0.5
18 | B6 | <0.5
